Results on 16 sequences are retold here after the nanobody polyreactivity screen of Harvey et al. (2022).

A short description of this data set: yeast display, Sf9 membrane polyspecificity reagent, FACS + sequencing; frameworks hold sequencing errors. In short, it runs like this:
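After 36–48 hours of galactose induction, yeast (Saccharomyces cerevisiae BJ5465) displaying a synthetic nanobody library were stained at 4 °C for 1 hour with 10% biotinylated, detergent-solubilized Sf9 membrane reagent. Streptavidin microbeads enriched the stained cells before FACS sorting into low and high (top ~1%) gates on anti-HA and streptavidin fluorescence. Each clone's polyreactivity label reflects its gate of origin.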
As for “QVQLVESVGVLVQAGGSLRLSCAASGITFSSYAMGWYRQAPGKERELVAAITRTGGRTYYADSVKGRFTISRDNAKNTVYLQMNRLKPEDTAVYYCAAYYIAYYYWGQGTQVTVSS”, the “polyreactivity (PSR sort gate)” value is reported as “high polyreactivity”.

For “QVQLVESGGGLVQAGGSLRLSCAASGRIFRYNTMGWYRQAPGKERELVAAINSSGGRTYYADSVKGRFTISRDNAKNTVYLQMNSLKPEDTSVYYCAAVIYVLSGPGYDYWGQGTQVTVSS”, the “polyreactivity (PSR sort gate)” value is “high polyreactivity”. The entry for “QVQLVESGGGLVQAGGSLRLSCAASGSIFGSYAMGWYRQAPGKERELVAAITYSGTSTYYADSVKGRFTISRDNAKNTVYLQMNSLKPEDTAVYYCNAVSRHRSKFDYWGQGTQVTVSS” is “high polyreactivity”. Take “QVQLVESGGGLVQAGGSLRLSCAASGRIICFYPMGWYRQAPGKEREFVAAIRWSGGTTYYADSVKGRFTISRDNAKNNVYLQMNSLKPEDTAVYYCAAGRAVGHSLYSRGYDYWGQGTQVTVSS”: the “polyreactivity (PSR sort gate)” value is recorded as “low polyreactivity”. In the case of “QVQLVESVGGLVQAGGSLRIICAASGSIFTDNAMGWYRQAPGTERELVAAISRSGGNTYYADSVKGRFTISRDNAKNTVYLQMNSLKPEDTAVYYCAARQKGTGNYWGQGTQVTVSS” it was “high polyreactivity”.

As to “QVQLVESGGGLVQAGGSLRLSCAASGSTFRYYAMGWYRQAPGKERELVATITGSGGSTYYADSVKGRFTISRDNAKNTVYLQMNSLKPEDTAVYYCAAYYSGGYDYWGQGTQVTVSS”, the “polyreactivity (PSR sort gate)” value is given as “high polyreactivity”. The entry for “QVQLVESGGGLVQAGGSIRLICAASGRTFSRYAMGWYRQAPGKERELVAAITFRFGRTYYADSVKGRFTISRDNAKNTVYLQMNSMKPEDTSVYYCAAETKYSGAYPYDYWGQGTQVPVSS” is “high polyreactivity”; for “QVQLQGSGAGLVQAGGSLRLSCAPSGYILQNVPMGWNRQAPGKERELVAGIDNGTSTNYADSVNGSFTISRDNAKNTVYLQMNSLKPEDTAVYYCAAAGQADETLGYWGQGTQVTVSR” it is “low polyreactivity”; for “QVQLVESGGGLVQAGGSLRLSCAASGSIIRWNAMGWYRQAPGKERELVAAITGGGGNTYYSDSVKGRFTISRDNAKNTVYLQMNSLKPEDTAVYYCNVVYRNYRNDYWGQGTQVTVSS” it is “high polyreactivity”. The entry for “QVQIVESGGGLVQAGGSLRLSGAASGRTFRPYTMGWYRPAPGKERELVARITSGGSTNYADSVKWRFTISRDNAKITVYLQMNSLKPEDTAVYYCNKPGYRLRLDDDYWGQGTQVTVSS” is “low polyreactivity”; for “QVQLVESGGCLVQAGGTLRLSCAASGRTFIVYSMGWYRPAPGKERELVAAITTSVGRTYYADSVKGRFTISRDNAKNTVFLQMISLKPEDTAVYYCADDLLDGYSEYSYWGQGTQVTVSS” it is “low polyreactivity”. The entry for “QVQLVESGGGLVQAGGSLRLSCAASGSIFDGNAMGWYRQAPGKERELVAAISGGGRTYYADSVKGRFTISRDNAKNTVYLQMNSLKPEDTAVYYCAAAYTFYVYGSYKVTLDYWGQGTQVTVSS” is “low polyreactivity”. Consider “QVQLVESGGGLVQAGGSLRLSCASSGSTIYPNAMGWYRQAPGKERELVARISRTGGSTYADSVKGRFTISRDNAKNTVYLQMNSLKPEDTAVYYCARSYASFSWLRTKEPYEYWGQGTQVTVSS”, for which the “polyreactivity (PSR sort gate)” value was “low polyreactivity”.

For the sequence “QVQLVESGGGLVQAGGSLRLSCADSGRTLSVYAMGWYRQAPGKESELVAAITWRGGSTYYADSVKGRFTISRDNAKNTVYLQMNSLKPEDTAVYYCAAEDYTYNGGGFEYWGQGTQVTVAS”, the “polyreactivity (PSR sort gate)” value is on record as “low polyreactivity”. In the case of “QVQLVESGGGVVQAGGSLRLSCAASGRTFKKYAMGWYRQAPGKEREFVARITYSAGSTYYADSVKGRFTISRDNAKNSVYLQMNSLKPEDTAVYYCASRFASSGPRWYSRHGEYDYWGQGTQVTVSS” it was “low polyreactivity”; in that of “QVQLVESGGGLVQAGGSLRLSCAASGRILYSYAMGWYRQAPGKERELVAAISSTGSTYYADSVKGRFTISRDNAKNTVYLQMNSLKPEDTAVYYCAATFFPYQVHHYYYWGQGTQVTVSS”, “low polyreactivity”.
